Data as given in publication PMC4434323.

Experiments:
[1] = biological target: T1, pop-1 (W10C8.2) (Caenorhabditis elegans) (UniProt Q10666)
T1 sequence: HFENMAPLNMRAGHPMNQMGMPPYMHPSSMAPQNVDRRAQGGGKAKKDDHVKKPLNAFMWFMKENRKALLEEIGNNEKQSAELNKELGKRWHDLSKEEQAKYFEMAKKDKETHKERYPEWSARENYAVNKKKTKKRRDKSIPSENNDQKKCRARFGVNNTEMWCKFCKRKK

[2] = biological target: T2, C46E10.8 (C46E10.8) (Caenorhabditis elegans) (UniProt O44719)
T2 sequence: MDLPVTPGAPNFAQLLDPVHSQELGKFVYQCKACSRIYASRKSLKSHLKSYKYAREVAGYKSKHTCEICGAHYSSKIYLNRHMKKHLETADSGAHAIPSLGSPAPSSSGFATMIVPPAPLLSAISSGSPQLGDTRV

[3] = biological target: T3, atf-5 (T04C10.4) (Caenorhabditis elegans) (UniProt Q22156)
T3 sequence: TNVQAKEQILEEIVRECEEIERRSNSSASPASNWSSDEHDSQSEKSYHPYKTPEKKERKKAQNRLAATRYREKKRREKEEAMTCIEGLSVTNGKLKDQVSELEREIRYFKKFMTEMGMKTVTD

[4] = biological target: T4, W08E12.1 (W08E12.1) (Caenorhabditis elegans) (UniProt Q9N5A8)
T4 sequence: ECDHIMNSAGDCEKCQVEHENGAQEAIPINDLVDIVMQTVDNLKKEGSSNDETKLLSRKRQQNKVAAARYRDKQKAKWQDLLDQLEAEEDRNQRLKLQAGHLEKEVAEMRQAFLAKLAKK

[5] = biological target: T5, atf-6 (F45E6.2) (Caenorhabditis elegans) (UniProt Q20435)
T5 sequence: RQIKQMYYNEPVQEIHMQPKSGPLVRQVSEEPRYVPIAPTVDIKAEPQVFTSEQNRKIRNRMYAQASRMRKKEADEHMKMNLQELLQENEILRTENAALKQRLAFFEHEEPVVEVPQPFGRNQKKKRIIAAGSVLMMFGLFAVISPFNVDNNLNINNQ

[6] = biological target: atf-7 (C07G2.2) (Caenorhabditis elegans) (UniProt Q86MD3)
atf-7 (C07G2.2) (Caenorhabditis elegans), sequence (Q86MD3 339-508): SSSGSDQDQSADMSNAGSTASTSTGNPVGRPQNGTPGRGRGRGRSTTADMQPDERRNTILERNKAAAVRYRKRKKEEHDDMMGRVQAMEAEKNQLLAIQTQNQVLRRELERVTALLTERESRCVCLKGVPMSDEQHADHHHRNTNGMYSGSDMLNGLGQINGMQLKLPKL

[7] = biological target: T6, Y51H4A.4 (Y51H4A.4) (Caenorhabditis elegans) (UniProt Q9NAE4)
T6 sequence: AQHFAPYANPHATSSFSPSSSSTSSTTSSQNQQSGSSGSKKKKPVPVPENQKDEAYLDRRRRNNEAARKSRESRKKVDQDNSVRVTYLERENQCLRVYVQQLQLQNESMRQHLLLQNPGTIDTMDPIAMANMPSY

[8] = biological target: T7, zip-3 (W07G1.3) (Caenorhabditis elegans) (UniProt Q9XUK2)
T7 sequence: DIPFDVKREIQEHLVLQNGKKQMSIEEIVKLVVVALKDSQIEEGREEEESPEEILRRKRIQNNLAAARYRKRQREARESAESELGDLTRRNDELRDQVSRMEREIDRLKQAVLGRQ

[9] = biological target: T8, D1005.3 (D1005.3) (Caenorhabditis elegans) (UniProt Q18909)
T8 sequence: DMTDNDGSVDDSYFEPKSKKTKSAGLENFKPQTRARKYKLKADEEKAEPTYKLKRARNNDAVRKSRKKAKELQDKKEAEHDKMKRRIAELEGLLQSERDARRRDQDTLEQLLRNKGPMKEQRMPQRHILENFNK

[10] = biological target: T9, T27F2.4 (T27F2.4) (Caenorhabditis elegans) (UniProt Q22835)
T9 sequence: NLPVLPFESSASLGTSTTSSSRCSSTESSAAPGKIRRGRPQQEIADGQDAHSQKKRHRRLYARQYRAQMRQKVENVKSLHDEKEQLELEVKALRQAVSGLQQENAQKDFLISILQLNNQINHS

[11] = biological target: T10, F17A9.3 (F17A9.3) (Caenorhabditis elegans) (UniProt O16213)
T10 sequence: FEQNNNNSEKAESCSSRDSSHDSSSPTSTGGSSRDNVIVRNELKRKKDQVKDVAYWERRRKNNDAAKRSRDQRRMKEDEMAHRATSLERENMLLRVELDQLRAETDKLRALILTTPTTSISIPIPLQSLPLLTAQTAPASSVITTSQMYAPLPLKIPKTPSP

[12] = biological target: T11, atf-2 (K08F8.2) (Caenorhabditis elegans) (UniProt Q21361)
T11 sequence: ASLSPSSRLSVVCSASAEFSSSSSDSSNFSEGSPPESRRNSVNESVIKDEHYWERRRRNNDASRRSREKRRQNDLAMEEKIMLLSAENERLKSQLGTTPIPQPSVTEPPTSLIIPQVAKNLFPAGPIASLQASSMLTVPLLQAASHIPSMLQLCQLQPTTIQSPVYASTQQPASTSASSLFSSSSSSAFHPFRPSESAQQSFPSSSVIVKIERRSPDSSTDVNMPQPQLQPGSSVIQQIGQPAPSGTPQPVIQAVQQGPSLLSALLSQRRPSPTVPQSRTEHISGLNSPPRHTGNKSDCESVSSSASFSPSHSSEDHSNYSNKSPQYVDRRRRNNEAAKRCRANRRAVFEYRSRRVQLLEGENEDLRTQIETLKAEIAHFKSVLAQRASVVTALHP

[13] = biological target: T12, T07C12.11 (T07C12.11) (Caenorhabditis elegans) (UniProt G5EGG9)
T12 sequence: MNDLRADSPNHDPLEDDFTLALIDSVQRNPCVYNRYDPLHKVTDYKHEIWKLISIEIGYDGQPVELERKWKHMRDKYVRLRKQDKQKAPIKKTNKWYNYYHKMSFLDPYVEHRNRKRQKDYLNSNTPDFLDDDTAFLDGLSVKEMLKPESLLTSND

[14] = biological target: T13, F10B5.3 (F10B5.3) (Caenorhabditis elegans) (UniProt Q09534)
T13 sequence: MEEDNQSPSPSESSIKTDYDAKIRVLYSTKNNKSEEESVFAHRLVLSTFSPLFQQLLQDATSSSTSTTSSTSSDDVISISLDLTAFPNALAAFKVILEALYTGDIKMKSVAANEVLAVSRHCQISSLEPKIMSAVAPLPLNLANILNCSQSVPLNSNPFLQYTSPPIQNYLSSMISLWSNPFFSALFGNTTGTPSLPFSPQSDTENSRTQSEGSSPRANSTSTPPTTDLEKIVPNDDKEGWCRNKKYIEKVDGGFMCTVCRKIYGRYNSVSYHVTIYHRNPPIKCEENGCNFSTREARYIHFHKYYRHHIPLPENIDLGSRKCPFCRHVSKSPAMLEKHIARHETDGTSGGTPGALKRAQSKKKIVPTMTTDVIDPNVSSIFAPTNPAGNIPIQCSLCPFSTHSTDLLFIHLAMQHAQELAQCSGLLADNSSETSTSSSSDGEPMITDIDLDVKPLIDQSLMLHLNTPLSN

[15] = biological target: T14, hsf-1 (Y53C10A.12) (Caenorhabditis elegans) (UniProt G5EFT5)
T14 sequence: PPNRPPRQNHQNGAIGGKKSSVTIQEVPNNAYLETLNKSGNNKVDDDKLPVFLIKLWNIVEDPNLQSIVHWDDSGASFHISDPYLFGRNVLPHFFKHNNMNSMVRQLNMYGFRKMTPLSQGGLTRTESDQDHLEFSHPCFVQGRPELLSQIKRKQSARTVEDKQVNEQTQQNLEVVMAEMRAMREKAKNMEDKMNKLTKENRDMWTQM

Sequence: CATCAAAG (double strand) [8-mer CATCAAAG]
- binding signal (PBM E-score (-0.5 to 0.5)) [1]: 0.463

Sequence: CTTTGATC (double strand) [8-mer CTTTGATC]
- binding signal (PBM E-score (-0.5 to 0.5)) [1]: 0.451

Sequence: TAAATTTA (double strand) [8-mer TAAATTTA]
- binding signal (PBM E-score (-0.5 to 0.5)) [2]: 0.459

Sequence: TGACGTAA (double strand) [8-mer TGACGTAA]
- binding signal (PBM E-score (-0.5 to 0.5)) [3]: 0.49
- binding signal (PBM E-score (-0.5 to 0.5)) [4]: 0.47
- binding signal (PBM E-score (-0.5 to 0.5)) [5]: 0.459
- binding signal (PBM E-score (-0.5 to 0.5)) [6]: 0.495
- binding signal (PBM E-score (-0.5 to 0.5)) [7]: 0.454

Sequence: TGACGTCA (double strand) [8-mer TGACGTCA]
- binding signal (PBM E-score (-0.5 to 0.5)) [3]: 0.5
- binding signal (PBM E-score (-0.5 to 0.5)) [4]: 0.5
- binding signal (PBM E-score (-0.5 to 0.5)) [6]: 0.5
- binding signal (PBM E-score (-0.5 to 0.5)) [8]: 0.5

Sequence: TTACGAAA (double strand) [8-mer TTACGAAA]
- binding signal (PBM E-score (-0.5 to 0.5)) [9]: 0.464
- binding signal (PBM E-score (-0.5 to 0.5)) [10]: 0.463

Sequence: TTACGTAA (double strand) [8-mer TTACGTAA]
- binding signal (PBM E-score (-0.5 to 0.5)) [11]: 0.498
- binding signal (PBM E-score (-0.5 to 0.5)) [7]: 0.498
- binding signal (PBM E-score (-0.5 to 0.5)) [12]: 0.478
- binding signal (PBM E-score (-0.5 to 0.5)) [13]: 0.496

Sequence: TTCCAGAA (double strand) [8-mer TTCCAGAA]
- binding signal (PBM E-score (-0.5 to 0.5)) [14]: 0.491
- binding signal (PBM E-score (-0.5 to 0.5)) [15]: 0.489

Sequence: TTCTAGAA (double strand) [8-mer TTCTAGAA]
- binding signal (PBM E-score (-0.5 to 0.5)) [14]: 0.477
- binding signal (PBM E-score (-0.5 to 0.5)) [15]: 0.498

Sequence: TTGCGAAA (double strand) [8-mer TTGCGAAA]
- binding signal (PBM E-score (-0.5 to 0.5)) [9]: 0.466
